Test results: the supplement of paper PMC7877785
± gives the uncertainty stated by the source.

Test: self-splicing fitness, log relative to wild type (ln ratio); higher = more splicing; Tetrahymena group I intron in knt gene, E. coli kanamycin selection, DiMSum; sequences stand for … in CUCUCU…GGAGGGAAAAGUUAUCAGGCAUGCACCUGGUAGCUAGUCUUUAAACCAAUAGAUUGCAUCGGUUUAAAAGGCAAGACCGUCAAAUUGCGGGAAAGGGGUCAACAGCCGUUCAGUACCAAGUCUCAGGGGAAACUUUGAGAUGGCCUUGCAAAGGGUAUGGUAAUAAGCUGACGGACAUGGUCCUAACCACGCAGCCAAGUCCUAAGUCAACAGAUCUUCUGUUGAUAUGGAUGCAGUUCACAGACUAAAUGUCGGUCGGGGAAGAUGUAUUCUUCUCAUAAGAUAUAGUCGGACCUCUCCUUAAUGGGAGCUAGCGGAUGAAGUGAUGCAACACUGGAGCCGCUGGGAACUAAUUUGUAUGCGAAAGUAUAUUGAUUAGUUUUGGAGUACUCGUGGUCG
How it was run: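 The eight P1ex-region nucleotides of an intron in the knt kanamycin-resistance gene on pET-22b(+) were all randomised and the library put into E. coli BL21(DE3). Six replicate transformations were grown overnight at 37°C or 30°C on LB agar with or without 25 μg/mL kanamycin, together with 100 μg/mL carbenicillin, 50 μM IPTG and 0.2% rhamnose. Colonies were pooled and amplicon-sequenced on an Illumina HiSeq 2500. Fitness from DiMSum is the error-weighted combination of wild-type-normalised replicate fold changes, kanamycin over none.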

Row | Sequence | self-splicing fitness (ln) (30 °C) | self-splicing fitness (ln) (37 °C)
1 | UCGGAGCAAUAUUACGGUCU | -0.916 ± 0.37 | 
2 | UCGGAGCAAUAUUACGGUUA | -2.38 ± 0.47 | -2.3 ± 0.28
3 | UCGGAGCAAUAUUACGUAGG | -1.78 ± 0.13 | -0.619 ± 0.15
4 | UCGGAGCAAUAUUACGUCGG | -1.7 ± 0.24 | -2.04 ± 0.28
5 | UCGGAGCAAUAUUACGUGAU |  | -3.24 ± 0.47
6 | UCGGAGCAAUAUUACGUGCC | -3.26 ± 0.34 | -2.53 ± 0.45
7 | UCGGAGCAAUAUUACGUGGG | -3.49 ± 0.32 | -3.22 ± 0.28
8 | UCGGAGCAAUAUUACGUGUA |  | -1.29 ± 0.2
9 | UCGGAGCAAUAUUACGUUAG |  | -2.12 ± 0.22
10 | UCGUAGCAAUAUUACGAAAG | -3.1 ± 0.17 | -2.16 ± 0.23
11 | UCGUAGCAAUAUUACGACAC | -3.54 ± 0.34 | -2.7 ± 0.4
12 | UCGUAGCAAUAUUACGACAG |  | -1.5 ± 0.29
13 | UCGUAGCAAUAUUACGACGA | -3.15 ± 0.3 | -0.365 ± 0.11
14 | UCGUAGCAAUAUUACGACUC |  | -1.34 ± 0.31
15 | UCGUAGCAAUAUUACGAGAG | -4.38 ± 0.46 | -1.89 ± 0.25
16 | UCGUAGCAAUAUUACGAGUA | -2.71 ± 0.18 | -1.21 ± 0.13
17 | UCGUAGCAAUAUUACGAUCA | -0.922 ± 0.19 | -0.511 ± 0.17
18 | UCGUAGCAAUAUUACGAUUG | -2.6 ± 0.15 | -2.92 ± 0.28
19 | UCGUAGCAAUAUUACGCAGU | -3.54 ± 0.39 | -2.51 ± 0.28
20 | UCGUAGCAAUAUUACGCCCU | -1 ± 0.25 | -0.827 ± 0.34
21 | UCGUAGCAAUAUUACGGACU | -3.21 ± 0.31 | -0.974 ± 0.21

Row | Sequence | self-splicing fitness (ln) (30 °C) | self-splicing fitness (ln) (37 °C)
22 | UCGUAGCAAUAUUACGGCUU | -2.85 ± 0.46 | -1.64 ± 0.33
23 | UCGUAGCAAUAUUACGGUAG | -4.09 ± 0.36 | -3.06 ± 0.4
24 | UCGUAGCAAUAUUACGGUGU | -3.09 ± 0.13 | -2.7 ± 0.19
25 | UCGUAGCAAUAUUACGUAAU | -2.47 ± 0.14 | -1.78 ± 0.17
26 | UCGUAGCAAUAUUACGUGCU | -2.98 ± 0.26 | -2.83 ± 0.48
27 | UCGUAGCAAUAUUACGUGGA | -2.39 ± 0.16 | -2.36 ± 0.13
28 | UCGUAGCAAUAUUACGUUUA | -1.5 ± 0.085 | -0.934 ± 0.08
29 | UCGUAGCAAUAUUACGUUUC | -3.71 ± 0.24 | -2.31 ± 0.21
30 | UCUAAGCAAUAUUACGAACA | -1.21 ± 0.28 | -1.2 ± 0.2
31 | UCUAAGCAAUAUUACGAAUA |  | -1.52 ± 0.32
32 | UCUAAGCAAUAUUACGACAG | -1.58 ± 0.1 | -0.799 ± 0.15
33 | UCUAAGCAAUAUUACGACUC | -3.61 ± 0.48 | -2.43 ± 0.42
34 | UCUAAGCAAUAUUACGACUU | -3.9 ± 0.28 | -3.44 ± 0.37
35 | UCUAAGCAAUAUUACGAGAA | -3.17 ± 0.5 | -1.69 ± 0.39
36 | UCUAAGCAAUAUUACGAGCC | -2.34 ± 0.34 | 
37 | UCUAAGCAAUAUUACGAGCG | -1.19 ± 0.1 | -0.708 ± 0.12
38 | UCUAAGCAAUAUUACGAUCG | -1.06 ± 0.099 | -0.234 ± 0.1
39 | UCUAAGCAAUAUUACGCAAC | -3.54 ± 0.17 | -1.32 ± 0.2
40 | UCUAAGCAAUAUUACGCAAU |  | -3.12 ± 0.43
41 | UCUAAGCAAUAUUACGCAGA |  | -0.999 ± 0.21
